According to publication PMC10627512:

Target: HipB of the E. coli O127:H6 HipBST toxin-antitoxin system (E. coli O127:H6) (UniProt P23873)
Assay: crystal structure

In the case of “HipB of the E. coli O127:H6 HipBST toxin-antitoxin system (from UniProt P23873 1-88) (natural protein)”, the stoichiometry N is reported as 2.
